# Assay results from US20200405879A1 (published 2020).
# T1: CD19 (human, UniProt P15391 20-556)
# T1 sequence (looked up): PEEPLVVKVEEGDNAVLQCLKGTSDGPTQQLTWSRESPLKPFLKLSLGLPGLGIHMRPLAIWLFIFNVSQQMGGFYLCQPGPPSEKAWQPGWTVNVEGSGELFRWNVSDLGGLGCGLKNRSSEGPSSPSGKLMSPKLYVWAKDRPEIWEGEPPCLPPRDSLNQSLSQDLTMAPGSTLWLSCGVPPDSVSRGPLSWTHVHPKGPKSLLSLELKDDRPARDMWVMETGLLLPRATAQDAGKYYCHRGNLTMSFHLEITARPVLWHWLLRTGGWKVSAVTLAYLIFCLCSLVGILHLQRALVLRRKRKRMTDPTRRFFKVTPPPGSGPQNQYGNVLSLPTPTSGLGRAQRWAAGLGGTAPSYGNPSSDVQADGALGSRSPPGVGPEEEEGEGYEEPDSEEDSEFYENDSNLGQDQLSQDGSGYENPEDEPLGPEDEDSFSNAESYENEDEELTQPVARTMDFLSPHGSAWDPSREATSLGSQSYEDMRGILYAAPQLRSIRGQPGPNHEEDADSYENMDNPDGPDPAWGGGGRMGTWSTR
# B1: ADCx19 (antibody, V domains shown)
# VH: QVQLVQPGAEVVKPGASVKLSCKTSGYTFTSNWMHWVKQAPGQGLEWIGEIDPSDSYTNYNQNFQGKAKLTVDKSTSTAYMEVSSLRSDDTAVYYCARGSNPYYYAMDYWGQGTSVTVS
# VL: EIVLTQSPAIMSASPGERVTMTCSASSGVNYMHWYQQKPGTSPRRWIYDTSKLASGVPARFSGSGSGTSYSLTISSMEPEDAATYYCHQRGSYTFGGGTKLEIK
# modifications: pyrrolobenzodiazepine (PBD) dimer warhead attached to the antibody via a cleavable linker; DAR 2+/-0.3; attachment residues not stated
# B2: ADCx22 (antibody, human IgG1, kappa, V domains shown)
# VH: QVQLVQSGAEVKKPGSSVKVSCKASGYTFTSYWLHWVRQAPGQGLEWIGYINPRNDYTEYNQNFKDKATITADESTNTAYMELSSLRSEDTAFYFCARRDITTFYWGQGTLVTVSS
# VL: DIQLTQSPSSLSASVGDRVTMSCKSSQSVLYSANHKNYLAWYQQKPGKAPKLLIYWASTRESGVPSRFSGSGSGTDFTFTISSLQPEDIATYYCHQYLSSWTFGQGTKVEIKR
# modifications: PBD drug-linker on heavy chain interchain cysteine Cys220 (EU numbering) = position 219 of SEQ ID NO. 15
# Key:
# CD19 = target: T1, CD19; assay: cell-based or functional assay; set-up: unit not given beside the values
# CD22 = CD22 (human, UniProt P20273 20-847); assay: cell-based or functional assay; set-up: unit not given beside the values
Binder,"EC50, in vitro cytotoxicity (MTS cell viability) on Ramos cells, 4 days (CD19)","EC50, in vitro cytotoxicity (MTS cell viability) on Ramos cells, 4 days (CD22)"
B1,0.000239,
B2,,0.0133
